# Measurements: patent publication US20040005688A1 (University of California, published 2004)
# T1: GST-fusion protein containing the PDZ domain of Dsh (Drosophila, UniProt P51140 250-338)
# T1 construct: One of the smaller segments of the DM region made as GST fusions; not shown: glutathione S-transferase (GST) from a GST expression vector
# T1 chain: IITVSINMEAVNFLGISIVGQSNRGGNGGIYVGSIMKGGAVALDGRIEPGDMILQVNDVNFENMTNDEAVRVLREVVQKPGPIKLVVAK
# Target: T1, GST-fusion protein containing the PDZ …
# Experiment: GST pull-down with segments of the DM region; in vitro kinase assay
# Experimental: Lysates in buffer A with PIC were incubated with anti-Dsh or anti-DAK antibodies for 2-4 hours at 4° C. The immune complexes were collected by incubation with protein-A beads for 2 hours at 4° C., followed by centrifugation. The immunoprecipitates were then washed three times for 5-10 minutes each with Buffer A and subjected to SDS-PAGE or in vitro kinase assay. For precipitation by GST fusion proteins containing various regions of Dsh, lysates in buffer A with PIC were incubated for 2-4 hours at 4° C. with fusion proteins immobilized on glutathione agarose beads, followed by brief centrifugation. The glutathione beads were then washed three time for 5-10 minutes each with Buffer A and subjected to in vitro kinase assay, as described below.
# The DAK activity was determined by a solid phase in vitro kinase assay after being brought down by immunoprecipitation (IP) or GST precipitation. The washed protein A or glutathione beads were then washed once with kinase buffer (50 mM Tris (pH 7.6), 10 mM MgCl₂) for 5 minutes at 4° C. The kinase reactions were carried out at room temperature for 30 minutes in a reaction volume of 20 μl containing 5:1 washed IP or GST beads, 1 μl [γ-³²P] ATP (10 μCi at 5000 Ci/mmol, Amersham) and 14 μl kinase buffer. […] The membranes were exposed to X-ray films or quantitated as indicated. […]
binder,measurement,value
"Dishevelled Associated Kinase (DAK), endogenous kinase activity from Drosophila embryo and Clone-8 cell lysates (enzyme, Native activity from lysates, not a defined construct; also called Dishevelled associated kinase activity; Dsh associated kinase activity) MSTAMRTTLQSVPEALPADSVSNGTASNVAAPAAPVSSATNAVPPLAAVSSTTATYATNSISTSSHSVKDQQQQQQQQQHDSANANIVSLPPTTTPVANTNTMMPIVTSSNSATSNSTAATPTPASGAAATGGVGSVSQGPATVSASAANTNHSHQHSHQHHHHVANNMTTDGARLSSNNSAVVASSAINHHHHHTPGSGVAPTVNKNVLSTHSAHPSAIKQRTSSAKGSPNMQMRSSAPMRWRATEEHIGKYKLIKTIGKGNFAKVKLAKHLPTGKEVAIKIIDKTQLNPGSLQKLFREVRIMKMLDHPNIVKLFQVIETEKTLYLIMEYASGGEVFDYLVLHGRMKEKEARVKFRQIVSAVQYCHQKRIIHRDLKAENLLLDSELNIKIADFGFSNEFTPGSKLDTFCGSPPYAAPELFQGKKYDGPEVDVWSLGVILYTLVSGSLPFDGSTLRELRERVLRGKYRIPFYMSTDCENLLRKFLVLNPAKRASLETIMGDKWMNMGFEEDELKPYIEPKADLADPKRIEALVAMGYNRSEIEASLSQVRYDDVFATYLLLGRKSTDPESDGSRSGSSLSLRNISGNDAGANAGSASVQSPTHRGVHRSISASSTKPSRRASSGAETLRVGPTNAAATVAAATGAVGAVNPSNNYNAAGSAADRASVGSNFKRQNTIDSATIKENTARLAAQNQRPASATQKMLTTADTTLNSPAKPRTATKYDPTNGNRTVSGTSGIIPRRSTTLYEKTSSTEKTNVIPAETKMASAVKSSRHFPRNVPSRSTFHSGQTRARNNTALEYSGTSGASGDSSHPGRMSFFSKLSSRFSKRPNQ",binding result,no binding
